Assay results from the nanobody polyreactivity screen of Harvey et al. (2022).

Experiment: yeast display, Sf9 membrane polyspecificity reagent, FACS + sequencing; frameworks hold sequencing errors
In short: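 Genes from sorted yeast were amplified by colony PCR, read by MiSeq 2 × 250 sequencing and filtered on CDR length. These cells carried a synthetic nanobody library in Saccharomyces cerevisiae BJ5465 and were sorted by FACS into low and high (top ~1%) gates on anti-HA and streptavidin fluorescence. Polyreactivity is labelled according to the gate of origin.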

Sequence: QVQLVESGGGLVQAGGSLRFSCADSGRILSLYAMGWSRQAPGKERELVASINWSDGSTYYADSVKGRFTISRDKAKNTVYLQMNSLKPEDTAVYYCNVDVRSYVAGYDYWGQGTLVTVSS
- polyreactivity (PSR sort gate): low polyreactivity

Sequence: QVQLVESGGGLVQAGGSLRFSCADSGRTFRYYAMGWDIQARGKERELVAAISRGGRTNYGDSVKGRFTISRDNAKNTVYIQMNSLKPVDTAVYYCAVGGYSYYTVGYDYWGQGTQVTVSS
- polyreactivity (PSR sort gate): high polyreactivity

Sequence: QVQLVESGGGLVQAGGSLRFSCSASGSIFGYNTMGWYRPAPGKERQLVAAISKSGGSTYYADSVKGRFTISRDNAKNTVYLQMNSLKPEDSAVYYCATYAKQLSPYYYWGQGIQVTVSS
- polyreactivity (PSR sort gate): high polyreactivity

Sequence: QVQLVESGGGLVQAGGSLRFSFAASGINFRFNAMGWYRQAPGKEREFVAAITYSGDSTYYADSVKGRFTISRDNAKNTVFLQMNSLKREDTAVYYCAADYYAISRRIFYYWGQGTQVTVSS
- polyreactivity (PSR sort gate): low polyreactivity

Sequence: QVQLVESGGGLVQAGGSLRFSSAASGSIFQSYPMGLYRPAPGKERELVAAITRSGGRTYYADSVKGRFTISRDNAKNTVYLQMNSLKPEDTAVYYCAAFGWGYGYWGQGTQVTVSS
- polyreactivity (PSR sort gate): high polyreactivity

Sequence: QVQLVESGGGLVQAGGSLRIRCAASGSIFGFYALGWSRHAPGKERELVASISWRGSRTYYADSVKGRFTISRDNAKNTVYLQMNSLKPEDSAVYYCNAVAYVSSPQYVSTATGYGYWGQGTQVTVSS
- polyreactivity (PSR sort gate): high polyreactivity

Sequence: QVQLVESGGGLVQAGGSLRIRCAASGSTFSEYDMGWYRQAPGKERELVAAITTSGGSTYYADSVKGRFTISSDNAKNTVYLQMNSLKPEDTAVYYCAADSIGNYLLYDYWGQGTQVSVSS
- polyreactivity (PSR sort gate): low polyreactivity

Sequence: QVQLVESGGGLVQAGGSLRIRCAATGFIFLDYAMGWYRQAPGKERELVAAISSRGARTYYADSVKGRFTISRDNAKNTVYLQMNSLKPEDTAVYYCAARGPLDRYGYWGQGTQVTVSS
- polyreactivity (PSR sort gate): high polyreactivity

Sequence: QVQLVESGGGLVQAGGSLRIRSAASGGIIWWNAMGWYIQAPGKERELVAAISRSGGTTYYADSVKGRFTISRDNEKNSVYLQMNSLKPEDTAVYFCAAQYRYPGFNYWGQGSQVTVSS
- polyreactivity (PSR sort gate): high polyreactivity

Sequence: QVQLVESGGGLVQAGGSLRISCAASAITFEPYAMGWYRQAPGTEREFVAAISRSGGSTYYADSVKGRFTISRDNAKNTVYLQMNSLKPEDTAVYYCAADSWIGPDYGHDYRGQGTQVTVSS
- polyreactivity (PSR sort gate): high polyreactivity

Sequence: QVQLVESGGGLVQAGGSLRISCAASARTLKRNAMGWYRQAPGKERELVAAISFRVTNTYYADSVKGRFTISRDNAKNTVYLQMYSLKPEDTAVYYCAVPDSRFYSPRRVSPHDYWGQGTQVTVSS
- polyreactivity (PSR sort gate): high polyreactivity

Sequence: QVQLVESGGGLVQAGGSLRISCAASESIFPVYAMGWYRQAPGKERELVATITDGGGDTYYADSLKGRFTISRDNAKNTVYLQMNSLKPEDTAVYYCAARSMPEWSAYWYDYWGQGTQVTVSS
- polyreactivity (PSR sort gate): low polyreactivity

Sequence: QVQLVESGGGLVQAGGSLRISCAASGATFYYYAMGWYRQAPGKERELVASTYYADSVKGRFSISRDNAKNTVYLQMKSLKPEDTAVYYCAKRFKATYEYDYWGQGTQVTVSS
- polyreactivity (PSR sort gate): low polyreactivity

Sequence: QVQLVESGGGLVQAGGSLRISCAASGFIIYGYVMGWYRQAPGKERELVAAINSSSGRTYYADSVKGRFTISRDNAKNTVYLQMNSLKPEDTAVYYCAAYYYCSYDGTPYDYWGQGTQVTVSS
- polyreactivity (PSR sort gate): low polyreactivity

Sequence: QVQLVESGGGLVQAGGSLRISCAASGFTFPLYAMGWYRQAPGKERELVAAINYRGSSTYYADSVKGRFTISRDNAKNTVYLHMNSLKPEYTAVYYCNAADPVWNQVYWGSNEYDYWGQGTQVTVSS
- polyreactivity (PSR sort gate): high polyreactivity

Sequence: QVQLVESGGGLVQAGGSLRISCAASGFTFRSYSMGWYRQAPGKERELVAAITSTGGRTYYADSVKGRFTISRDNAKNTVYLQMNILNPEDTAVYYWAAGRKHFGPVHFGYWGQGTQVTVSW
- polyreactivity (PSR sort gate): high polyreactivity

Sequence: QVQLVESGGGLVQAGGSLRISCAASGFTFRYNAMGWYRQAPVKERELVATISSRGGSTNYADSVKGRFTISRDNAKNTVYLLMNSLKPEDTAVYYCNNVRYRDLKRYDYWGQGTQVTVSS
- polyreactivity (PSR sort gate): high polyreactivity
